From the supplement of paper PMC9112550, “Optimization of the antimicrobial peptide Bac7 by deep mutational scanning” (BMC Biology, 2022)

Test system: Escherichia coli TOP10
Test: shrunken log2 fold change of peptide-encoding DNA abundance (4.5 h post-induction vs induction); higher = less antimicrobial activity (less host growth inhibition)
Details: time post-induction: 4.5 h; library: site-saturation at positions 5, 18, 19, 20
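Note: peptides expressed intracellularly from a pBAD plasmid library in pooled LB shake-flask culture, induced with 0.3% L-arabinose, DNA abundance read by NGS, three biological replicates, DESeq2 with apeglm shrinkage.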

Point of comparison: RRIRTRPPRLPRPRPRPYETPRP, “shrunken log2 fold change” value -0.00043. Against it:
- RRIRLRPPRLPRPRPRPVRIPRP — within 0.2 log units, 0.115
- RRIRMRPPRLPRPRPRPRSCPRP — higher, 0.274
- RRIRARPPRLPRPRPRPYWKPRP — within 0.2 log units, -0.0819
- RRIRERPPRLPRPRPRPPYEPRP — lower, -0.296
- RRIRYRPPRLPRPRPRPWARPRP — within 0.2 log units, -0.116
- RRIRMRPPRLPRPRPRPWLFPRP — higher, 0.457
- RRIRTRPPRLPRPRPRPCDAPRP — within 0.2 log units, 0.0216
- RRIRSRPPRLPRPRPRPAHCPRP — within 0.2 log units, 0.0412
- RRIRYRPPRLPRPRPRPIMNPRP — within 0.2 log units, -0.123
- RRIRQRPPRLPRPRPRPWDAPRP — within 0.2 log units, -0.0479
- RRIRYRPPRLPRPRPRPGCKPRP — within 0.2 log units, -0.0843
- RRIRDRPPRLPRPRPRPGQSPRP — within 0.2 log units, 0.116
- RRIRARPPRLPRPRPRPAFRPRP — higher, 0.355
- RRIRHRPPRLPRPRPRPWTIPRP — within 0.2 log units, -0.0445
- RRIRYRPPRLPRPRPRPKKYPRP — lower, -0.86
- RRIRARPPRLPRPRPRPVCHPRP — higher, 0.321
- RRIRERPPRLPRPRPRPPYYPRP — lower, -0.433
- RRIRHRPPRLPRPRPRPMGVPRP — within 0.2 log units, -0.00663
- RRIRQRPPRLPRPRPRPKAEPRP — higher, 0.45
- RRIRFRPPRLPRPRPRPYMDPRP — within 0.2 log units, -0.0184
- RRIRGRPPRLPRPRPRPFKTPRP — lower, -0.341
- RRIRLRPPRLPRPRPRPKFAPRP — higher, 0.293
- RRIRERPPRLPRPRPRPTNQPRP — lower, -0.414
- RRIRIRPPRLPRPRPRPTSRPRP — within 0.2 log units, -0.0459
- RRIRHRPPRLPRPRPRPQCYPRP — lower, -0.75
- RRIRTRPPRLPRPRPRPPYQPRP — within 0.2 log units, 0.0802
- RRIRPRPPRLPRPRPRPVMTPRP — within 0.2 log units, -0.0299
- RRIRLRPPRLPRPRPRPTAPPRP — higher, 0.645
- RRIRRRPPRLPRPRPRPIHGPRP — lower, -0.302
- RRIRGRPPRLPRPRPRPDYYPRP — within 0.2 log units, -0.0926
- RRIRTRPPRLPRPRPRPIHVPRP — within 0.2 log units, 0.00961
- RRIRNRPPRLPRPRPRPNYYPRP — lower, -0.473
- RRIRYRPPRLPRPRPRPMMIPRP — within 0.2 log units, -0.00702
- RRIRWRPPRLPRPRPRPQDIPRP — lower, -0.352
- RRIRCRPPRLPRPRPRPRPAPRP — higher, 0.834
- RRIRERPPRLPRPRPRPVAQPRP — lower, -0.201
- RRIRWRPPRLPRPRPRPQLFPRP — within 0.2 log units, 0.0645
- RRIRPRPPRLPRPRPRPVKQPRP — within 0.2 log units, 0.169
- RRIRLRPPRLPRPRPRPQDRPRP — within 0.2 log units, 0.128
- RRIRYRPPRLPRPRPRPANFPRP — within 0.2 log units, 0.0515
- RRIRERPPRLPRPRPRPACCPRP — within 0.2 log units, 0.0931
- RRIRSRPPRLPRPRPRPDDWPRP — within 0.2 log units, 0.155
- RRIRIRPPRLPRPRPRPGMQPRP — lower, -0.282
- RRIRNRPPRLPRPRPRPGSYPRP — lower, -0.442
- RRIRWRPPRLPRPRPRPSSIPRP — lower, -0.338
- RRIRTRPPRLPRPRPRPHRPPRP — within 0.2 log units, 0.0943
- RRIRARPPRLPRPRPRPNDTPRP — lower, -0.283
- RRIRIRPPRLPRPRPRPWAAPRP — within 0.2 log units, 0.00251
- RRIRYRPPRLPRPRPRPCYYPRP — lower, -1.03
- RRIRCRPPRLPRPRPRPVSTPRP — within 0.2 log units, -0.104
- RRIRWRPPRLPRPRPRPHLYPRP — within 0.2 log units, -0.125
- RRIRTRPPRLPRPRPRPIMVPRP — within 0.2 log units, -0.198
- RRIRVRPPRLPRPRPRPVDTPRP — within 0.2 log units, -0.18
- RRIRPRPPRLPRPRPRPDIKPRP — lower, -0.317
- RRIRTRPPRLPRPRPRPPAHPRP — higher, 0.252
- RRIRARPPRLPRPRPRPFQYPRP — within 0.2 log units, 0.0189
- RRIRRRPPRLPRPRPRPFWLPRP — higher, 0.231
- RRIRSRPPRLPRPRPRPQKCPRP — within 0.2 log units, 0.0984
- RRIRNRPPRLPRPRPRPYYNPRP — lower, -1.49
- RRIRPRPPRLPRPRPRPAINPRP — within 0.2 log units, -0.142
- RRIRFRPPRLPRPRPRPGECPRP — lower, -0.228
- RRIRLRPPRLPRPRPRPNPDPRP — within 0.2 log units, 0.0991
- RRIRFRPPRLPRPRPRPLSWPRP — higher, 0.245
- RRIRRRPPRLPRPRPRPKAEPRP — within 0.2 log units, 0.0655
- RRIRPRPPRLPRPRPRPHIEPRP — lower, -0.646
- RRIRDRPPRLPRPRPRPQANPRP — higher, 0.231
- RRIRFRPPRLPRPRPRPGICPRP — within 0.2 log units, -0.0925
- RRIRWRPPRLPRPRPRPTGVPRP — higher, 0.334
- RRIRLRPPRLPRPRPRPQYYPRP — lower, -0.396
- RRIRKRPPRLPRPRPRPGSVPRP — within 0.2 log units, 0.162
- RRIRGRPPRLPRPRPRPTKTPRP — within 0.2 log units, 0.0741
- RRIRARPPRLPRPRPRPMHNPRP — within 0.2 log units, -0.00444
- RRIRCRPPRLPRPRPRPRKDPRP — within 0.2 log units, -0.0271
- RRIRYRPPRLPRPRPRPNCMPRP — lower, -0.974
- RRIRCRPPRLPRPRPRPDMRPRP — within 0.2 log units, 0.018
- RRIRKRPPRLPRPRPRPLIGPRP — higher, 0.28
- RRIRQRPPRLPRPRPRPTTSPRP — within 0.2 log units, 0.1
- RRIRDRPPRLPRPRPRPKYKPRP — lower, -0.739
- RRIRHRPPRLPRPRPRPMWFPRP — lower, -0.218
- RRIRVRPPRLPRPRPRPINVPRP — lower, -0.342
- RRIRFRPPRLPRPRPRPCQDPRP — within 0.2 log units, -0.148
- RRIRCRPPRLPRPRPRPCGIPRP — within 0.2 log units, 0.153
- RRIRNRPPRLPRPRPRPAARPRP — within 0.2 log units, 0.161
- RRIRNRPPRLPRPRPRPTGSPRP — within 0.2 log units, 0.1
- RRIRERPPRLPRPRPRPRLIPRP — lower, -0.635
- RRIRLRPPRLPRPRPRPGHGPRP — within 0.2 log units, -0.00133
- RRIRHRPPRLPRPRPRPGERPRP — within 0.2 log units, -0.134
- RRIRGRPPRLPRPRPRPVISPRP — higher, 0.623
- RRIRLRPPRLPRPRPRPWYDPRP — lower, -0.309
- RRIRVRPPRLPRPRPRPDNMPRP — lower, -0.868
- RRIRYRPPRLPRPRPRPIGCPRP — higher, 0.225
- RRIRFRPPRLPRPRPRPQYDPRP — lower, -0.75
- RRIRSRPPRLPRPRPRPGAGPRP — higher, 0.445
- RRIRSRPPRLPRPRPRPYTGPRP — within 0.2 log units, -0.125
- RRIRVRPPRLPRPRPRPDIYPRP — within 0.2 log units, -0.131
- RRIRQRPPRLPRPRPRPCYVPRP — within 0.2 log units, -0.0541
- RRIRWRPPRLPRPRPRPVACPRP — within 0.2 log units, -0.052
- RRIRYRPPRLPRPRPRPGCPPRP — within 0.2 log units, -0.085
- RRIRIRPPRLPRPRPRPDLLPRP — lower, -0.634
- RRIRKRPPRLPRPRPRPSVTPRP — within 0.2 log units, -0.0473
- RRIRDRPPRLPRPRPRPFKVPRP — within 0.2 log units, -0.0463
- RRIRLRPPRLPRPRPRPFMFPRP — lower, -0.306
- RRIRCRPPRLPRPRPRPFIKPRP — lower, -0.715
- RRIRARPPRLPRPRPRPLHAPRP — higher, 0.554
- RRIRARPPRLPRPRPRPVRKPRP — higher, 0.763
- RRIRDRPPRLPRPRPRPMAAPRP — within 0.2 log units, 0.0982
- RRIRIRPPRLPRPRPRPCGFPRP — within 0.2 log units, -0.0835
- RRIRRRPPRLPRPRPRPCKAPRP — within 0.2 log units, 0.122
